Reference: the DeepSol protein solubility set

Test: soluble on expression in E. coli; label from the status in PepcDB or PDB records

| Sequence | soluble on expression in E. coli |
| --- | --- |
| MSNVQEWQQLANKELSRREKTVDSLVHQTAEGIAIKPLYTEADLDNLEVTGTLPGLPPYVRGPRATMYTAQPWTIRQYAGFSTAKESNAFYRRNLAAGQKGLSVAFDLATHRGYDSDNPRVAGDVGKAGVAIDTVEDMKVLFDQIPLDKMSVSMTMNGAVLPVLAFYIVAAEEQGVTPDKLTGTIQNDILKEYLCRNTYIYPPKPSMRIIADIIAWCSGNMPRFNTISISGYHMGEAGANCVQQVAFTLADGIEYIKAAISAGLKIDDFAPRLSFFFGIGMDLFMNVAMLRAARYLWSEAVSGFGAQDPKSLALRTHCQTSGWSLTEQDPYNNVIRTTIEALAATLGGTQSLHTNAFDEALGLPTDFSARIARNTQIIIQEESELCRTVDPLAGSYYIESLTDQIVKQARAIIQQIDEAGGMAKAIEAGLPKRMIEEASAREQSLIDQGKRVIVGVNKYKLDHEDETDVLEIDNVMVRNEQIASLERIRATRDDAAVTAALNALTHAAQHNENLLAAAVNAARVRATLGEISDALEVAFDRYLVPSQCVTGVIAQSYHQSEKSASEFDAIVAQTEQFLADNGRRPRILIAKMGQDGHDRGAKVIASAYSDLGFDVDLSPMFSTPEEIARLAVENDVHVVGASSLAAGHKTLIPELVEALKKWGREDICVVAGGVIPPQDYAFLQERGVAAIYGPGTPMLDSVRDVLNLISQHHD | soluble |
| MGSDKIHHHHHHMKKGFSALVEHNGYRVLVDTGTDGKILLNNMEGLGIDPNSIDALFLTHGHYDHTGGIAELLKARKDTLDVYAHPRIFEKRIALKPKRRDIGIPFSQEELESLGAIFHLNDKALEFLPGLISSGEIKRETWDRAVGYLLNNEKDPVRDDMALLIDLGDKIAVITGCGHSGILNIAKHAVEISKKPIRALIGGFHLRGASITILEDAVRGLKELNVEMLYPGHCTGIDEYAYLRMKLKAEHLNVGKEIVIK | not soluble |
| NTATVITVGNYKGGAGKTTNVVLLAYKLAKKGLKVCVLDLDPQSNATKSLLLTKSSLYQDEVVTIEKTLMTGISEKNLDGLEVKIMDNLYLLPSYIDFEDFPKYLYKNTSNQREEDYYLKNIFTPLQGKYDIVLIDVPPMSKAVTRNAVICSDYVLISLQTHERSLSGAESYVEELNKLHNEYDLDLEVVGVLPVIHKNNGSVDQYVMEVAKETFGEDNLFENVVPQMERIKRFDVNGITDKDRHDQKVLNLYDKVSDELLDRINYFEEEKEGAIN | not soluble |
| GPGSMTDFYSLIPSAPKGRFDGIERAHTAEDVKRLRGSVEIKYSLAEMGANRLWKLIHEEDFVNALGALSGNQAMQMVRAGLKAIYLSGWQVAADANTASAMYPDQSLYPANAGPELAKRINRTLQRADQIETAEGKGLSVDTWFAPIVADAEAGFGDPLDAFEIMKAYIEAGAAGVHFEDQLASEKKCGHLGGKVLIPTAAHIRNLNAARLAADVMGTPTLIVARTDAEAAKLLTSDIDERDQPFVDYEAGRTAEGFYQVKNGIEPCIARAIAYAPYCDLIWMETSKPDLAQARRFAEAVHKAHPGKLLAYNCSPSFNWKKNLDDATIAKFQRELGAMGYKFQFITLAGFHQLNYGMFELARGYKDRQMAAYSELQQAEFAAEADGYTATKHQREVGTGYFDAVSLAITGGQSSTTAMKESTETAQFKPAAE | soluble |
| MGSDKIHHHHHHMNYTQNQKISQITPSTLVIGIDVAKDKHVARAQDDRGLEFGKRLIFENRIHGFELLLEWALRHAKENSKDHIIFGVEPTGHYWLNLAYYLTAKDFDFVLVNPMHVKKSKELDDNSPTKNDTKDAKVISQLIKDGRYSVPNLLDGIYAELREGVKLRDQLIQQLLITEGRIQNIIDRYFPEFFDVFGDWEGKAAFCTLKLFPFPSQIVKMTPEEVLRQWKPFVQRGVGIKRATKLVETAHKSIGITIGSHFAQREMSSLLDQWELFKKQLEELDQELEGVVRTIPGANEMIDITGLGVATVTTVLSEIGDLKKYKHPQQLVNLAGLSLRENSSGKFKGQTTITKRGRSKLRRALYLAIRPLVAHNPTFKALHHYYTKRPDKPLKKQQSLIALCCKLLRVLFVIGQKQCPFDGSKLLQGIPQEKTLQAA | not soluble |
| MVIILRHVRVFNGVNECDIYLIGTAHVSKDSIEEVEKIISSVSPEGIAVELDDRRFFSLITNEEKKVDLKKVLKEGNFLKFFIYLILANSQKKIGESFGIKPGSEMKKAIEIASKYGLPIYLIDRDIDITLSRLMDRMTFKEKMKIFWELLNSDEEDLELDDDLLNDMVKNPEKFIKLLKEISPTIYEVLVDERDRFMAKRLFELSKNKNSLVAVVGAGHVEGIVRYLKKLENGNDIDLMELIKVKKRK | not soluble |
